Entries after “also recorded” stand apart in the source; their conditions may differ. Values belong to the molecule of their own block, whether it stands above or below them. Ends that are not written are not given here. * marks the point of attachment. FITC = O=C1OC2(c3ccc(O)cc3Oc3cc(O)ccc32)c2ccc(NC(=S)*)cc21; Ahx = NCCCCCC(=O)O
Key:
αVβ6-WT = test: Fluorescence polarization saturation binding, αVβ6-WT; conditions: 2, 5 and 10 nM probe, repeat1 and repeat2, 2 replicates each
Text: As in statistical models for determining p values, the fit assumes that errors are independent and normally distributed. The reported fit minimizes the sum of the squared errors. […] Source data for a, b are provided as a Source Data file. c Representative negative stain class averages of mutant or WT integrin headpieces alone (upper panels) or complexed with pro-TGF-β1. Representative 2:1 pro-TGF-β1:integrin class averages are shown.

αVβ8-mut6 headpiece = molecular target: T1, αVβ8-mut6 headpiece (Homo sapiens, UniProt P06756+P26012, K165T/M430C/N161D/N162D/V301C); test: Negative stain EM headpiece opening, αVβ8-mut6; conditions: 1 mM Mn2+/0.2 mM Ca2+
T1 construct: residues 1–594 of the αV-subunit and 1–456 of the β8-subunit; made in house; host or cells: Expi293 cells (transient)
Text: Fig. 7 Regulation of ligand-binding affinity by atypical and typical residues in αVβ8 and αVβ6. a Mutations corresponding to sequence exchanges between αVβ8 (black) and αVβ6 (red) and effect on affinity for FITC-labeled TGF-β3 ligand peptide (GRGDLGRLKK) in presence of Mg^2+ and Mn^2+. […] As in statistical models for determining p values, the fit assumes that errors are independent and normally distributed. The reported fit minimizes the sum of the squared errors. […] Source data for a, b are provided as a Source Data file. c Representative negative stain class averages of mutant or WT integrin headpieces alone (upper panels) or complexed with pro-TGF-β1. Representative 2:1 pro-TGF-β1:integrin class averages are shown. The WT integrin class averages shown for comparison are previously published. d, e Residues in regions of βI domain allostery with unusual properties in αVβ8 (d) are compared to counterparts in αVβ6 (e). […] Mn^2+: 0.37 [0.18, 0.55] […]
αVβ8-mut3 or αVβ8-mut6 (15 μg) were mixed with pro-TGF-β1 at molar ratio 1.5:1 in 50 μl of HBS buffer containing 1 mM Mn^2+/0.2 mM Ca^2+ for 30 min and injected in a 24 ml Superdex 75 gel filtration column pre-equilibrated with HBS buffer (20 mM HEPEs, pH 7.5, 150 mM NaCl, 1 mM Mn^2+/0.2 mM Ca^2+). The 2:2, 2:1 complexes and unbound αVβ8 and pro-TGF-β1 were well separated. […]

αVβ8-WT headpiece = molecular target: T2, αVβ8-WT headpiece (Homo sapiens, UniProt P06756+P26012, M430C/V301C); conditions: Mn2+; negative stain EM; cited from earlier work
T2 construct: residues 1–594 of the αV-subunit and 1–456 of the β8-subunit; made in house; host or cells: HEK293S GntI−/− cells

D8/D9 αVβ8 = D8/D9 αVβ8 compared to WT; cited from earlier work
Text: Mn^2+ increases affinity of αVβ6 in part by stabilizing headpiece opening. […] Results with αVβ8 were more complex. Substitution of one or both A ...

pro-TGF-β3 peptide [1] = molecular target: T3, pro-TGF-β3 peptide (Homo sapiens); test: fluorescence polarization
T3 chain: {FITC-Ahx}-GRGDLGRLKK

pro-TGF-β3 peptide [2] = molecular target: T4, pro-TGF-β3 peptide (Homo sapiens); test: fluorescence polarization
T4 chain: {FITC-Ahx}-GRGDLGRLKK

T1 sequence (P06756 31-624 M430C): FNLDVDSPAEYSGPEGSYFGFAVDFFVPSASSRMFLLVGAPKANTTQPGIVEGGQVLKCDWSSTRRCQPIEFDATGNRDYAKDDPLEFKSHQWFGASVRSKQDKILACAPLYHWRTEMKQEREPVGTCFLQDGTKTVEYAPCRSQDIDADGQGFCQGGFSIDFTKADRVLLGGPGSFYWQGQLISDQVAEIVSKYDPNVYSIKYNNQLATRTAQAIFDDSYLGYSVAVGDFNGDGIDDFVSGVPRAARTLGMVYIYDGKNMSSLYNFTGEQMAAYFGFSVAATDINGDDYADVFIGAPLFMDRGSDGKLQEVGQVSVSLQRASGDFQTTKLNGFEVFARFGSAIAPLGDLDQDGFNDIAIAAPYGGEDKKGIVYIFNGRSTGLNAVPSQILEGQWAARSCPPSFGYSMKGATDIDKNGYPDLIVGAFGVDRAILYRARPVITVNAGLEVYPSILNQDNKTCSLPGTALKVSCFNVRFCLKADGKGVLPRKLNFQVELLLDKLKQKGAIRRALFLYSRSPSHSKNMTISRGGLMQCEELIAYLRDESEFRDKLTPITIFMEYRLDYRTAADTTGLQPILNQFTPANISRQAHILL
T1 sequence (P26012 43-498 N161D/N162D/K165T/V301C): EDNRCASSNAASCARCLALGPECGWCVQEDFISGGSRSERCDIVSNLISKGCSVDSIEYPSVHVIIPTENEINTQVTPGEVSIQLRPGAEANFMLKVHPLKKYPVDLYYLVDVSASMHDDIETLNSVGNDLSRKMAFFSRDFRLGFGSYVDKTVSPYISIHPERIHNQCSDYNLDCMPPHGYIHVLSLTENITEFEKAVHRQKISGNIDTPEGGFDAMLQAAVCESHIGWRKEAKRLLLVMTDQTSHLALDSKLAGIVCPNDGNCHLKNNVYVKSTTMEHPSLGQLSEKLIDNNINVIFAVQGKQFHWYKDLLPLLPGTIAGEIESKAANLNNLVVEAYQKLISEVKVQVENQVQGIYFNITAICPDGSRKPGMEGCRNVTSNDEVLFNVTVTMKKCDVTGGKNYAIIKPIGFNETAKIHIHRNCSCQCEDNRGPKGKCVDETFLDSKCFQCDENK
T2 sequence (P06756 31-624 M430C): as the sequence (P06756 31-624 M430C) above
T2 sequence (P26012 43-498 V301C): as the sequence (P26012 43-498 N161D/N162D/K165T/V301C) above, with D119N, D120N, T123K counted along it

Molecule: pro-TGF-β1: Human pro-TGFβ-1 with a R249A cleavage site mutation
headpiece conformation when bound to pro-TGF-β1 (αVβ8-mut6 headpiece): remained closed; also recorded: neither mutant showed the open headpiece
headpiece conformation when bound to pro-TGF-β1 (αVβ8-WT headpiece): remained closed

Molecule: vitronectin: vitronectin, integrin ligand measured in cell binding in a cited study
amount of vitronectin binding to cells (D8/D9 αVβ8): decreased binding of D8/D9 αVβ8 compared to WT

Now from value to molecule:

Kd (αVβ6-WT; Mg fitting results, Std.Error 1.672e-10, 99% confidence interval 2.49E-09 (lower), 3.37E-09 (upper)): 2.93 nM
Kd (αVβ6-WT; Mn fitting results, Std.Error 5.139e-11, 99% confidence interval 1.21E-10 (lower), 3.88E-10 (upper)): 0.254 nM
Molecule: avb6-WT

Kd (pro-TGF-β3 peptide [1]): 30 nM
B1: Integrin αVβ8 headpiece αV 1-594 + β8 1-456 (protein)
chain 1: FNLDVDSPAEYSGPEGSYFGFAVDFFVPSASSRMFLLVGAPKANTTQPGIVEGGQVLKCDWSSTRRCQPIEFDATGNRDYAKDDPLEFKSHQWFGASVRSKQDKILACAPLYHWRTEMKQEREPVGTCFLQDGTKTVEYAPCRSQDIDADGQGFCQGGFSIDFTKADRVLLGGPGSFYWQGQLISDQVAEIVSKYDPNVYSIKYNNQLATRTAQAIFDDSYLGYSVAVGDFNGDGIDDFVSGVPRAARTLGMVYIYDGKNMSSLYNFTGEQMAAYFGFSVAATDINGDDYADVFIGAPLFMDRGSDGKLQEVGQVSVSLQRASGDFQTTKLNGFEVFARFGSAIAPLGDLDQDGFNDIAIAAPYGGEDKKGIVYIFNGRSTGLNAVPSQILEGQWAARSMPPSFGYSMKGATDIDKNGYPDLIVGAFGVDRAILYRARPVITVNAGLEVYPSILNQDNKTCSLPGTALKVSCFNVRFCLKADGKGVLPRKLNFQVELLLDKLKQKGAIRRALFLYSRSPSHSKNMTISRGGLMQCEELIAYLRDESEFRDKLTPITIFMEYRLDYRTAADTTGLQPILNQFTPANISRQAHILLDCGEDNVCKPKLEVSVDSDQKKIYIGDDNPLTLIVKAQNQGEGAYEAELIVSIPLQADFIGVVRNNEALARLSCAFKTENQTRQVVCDLGNPMKAGTQLLAGLRFSVHQQSEMDTSVKFDLQIQSSNLFDKVSPVVSHKVDLAVLAAVEIRGVSSPDHVFLPIPNWEHKENPETEEDVGPVVQHIYELRNNGPSSFSKAMLHLQWPYKYNNNTLLYILHYDIDGPMNCTSDMEINPLRIKISSLQTTEKNDTVAGQGERDHLITKRDLALSEGDIHTLGCGVAQCLKIVCQVGRLDRGKSAILYVKSLLWTETFMNKENQNHSYSLKSSASFNVIEFPYKNLPIEDITNSTLVTTNVTWGIQPAPMPV
chain 2: EDNRCASSNAASCARCLALGPECGWCVQEDFISGGSRSERCDIVSNLISKGCSVDSIEYPSVHVIIPTENEINTQVTPGEVSIQLRPGAEANFMLKVHPLKKYPVDLYYLVDVSASMHNNIEKLNSVGNDLSRKMAFFSRDFRLGFGSYVDKTVSPYISIHPERIHNQCSDYNLDCMPPHGYIHVLSLTENITEFEKAVHRQKISGNIDTPEGGFDAMLQAAVCESHIGWRKEAKRLLLVMTDQTSHLALDSKLAGIVVPNDGNCHLKNNVYVKSTTMEHPSLGQLSEKLIDNNINVIFAVQGKQFHWYKDLLPLLPGTIAGEIESKAANLNNLVVEAYQKLISEVKVQVENQVQGIYFNITAICPDGSRKPGMEGCRNVTSNDEVLFNVTVTMKKCDVTGGKNYAIIKPIGFNETAKIHIHRNCSCQCEDNRGPKGKCVDETFLDSKCFQCDENKCHFDEDQFSSESCKSHKDQPVCSGRGVCVCGKCSCHKIKLGKVYGKYCEKDDFSCPYHHGNLCAGHGECEAGRCQCFSGWEGDRCQCPSAAAQHCVNSKGQVCSGRGTCVCGRCECTDPRSIGRFCEHCPTCYTACKENWNCMQCLHPHNLSQAILDQCKTSCALMEQQHYVDQTSECFSSPSYLR

Kd (pro-TGF-β3 peptide [2]): 12 nM
B2: Integrin αVβ6 headpiece headpiece (protein)
chain 1: FNLDVDSPAEYSGPEGSYFGFAVDFFVPSASSRMFLLVGAPKANTTQPGIVEGGQVLKCDWSSTRRCQPIEFDATGNRDYAKDDPLEFKSHQWFGASVRSKQDKILACAPLYHWRTEMKQEREPVGTCFLQDGTKTVEYAPCRSQDIDADGQGFCQGGFSIDFTKADRVLLGGPGSFYWQGQLISDQVAEIVSKYDPNVYSIKYNNQLATRTAQAIFDDSYLGYSVAVGDFNGDGIDDFVSGVPRAARTLGMVYIYDGKNMSSLYNFTGEQMAAYFGFSVAATDINGDDYADVFIGAPLFMDRGSDGKLQEVGQVSVSLQRASGDFQTTKLNGFEVFARFGSAIAPLGDLDQDGFNDIAIAAPYGGEDKKGIVYIFNGRSTGLNAVPSQILEGQWAARSMPPSFGYSMKGATDIDKNGYPDLIVGAFGVDRAILYRARPVITVNAGLEVYPSILNQDNKTCSLPGTALKVSCFNVRFCLKADGKGVLPRKLNFQVELLLDKLKQKGAIRRALFLYSRSPSHSKNMTISRGGLMQCEELIAYLRDESEFRDKLTPITIFMEYRLDYRTAADTTGLQPILNQFTPANISRQAHILLDCGEDNVCKPKLEVSVDSDQKKIYIGDDNPLTLIVKAQNQGEGAYEAELIVSIPLQADFIGVVRNNEALARLSCAFKTENQTRQVVCDLGNPMKAGTQLLAGLRFSVHQQSEMDTSVKFDLQIQSSNLFDKVSPVVSHKVDLAVLAAVEIRGVSSPDHVFLPIPNWEHKENPETEEDVGPVVQHIYELRNNGPSSFSKAMLHLQWPYKYNNNTLLYILHYDIDGPMNCTSDMEINPLRIKISSLQTTEKNDTVAGQGERDHLITKRDLALSEGDIHTLGCGVAQCLKIVCQVGRLDRGKSAILYVKSLLWTETFMNKENQNHSYSLKSSASFNVIEFPYKNLPIEDITNSTLVTTNVTWGIQPAPMPV
chain 2: GCALGGAETCEDCLLIGPQCAWCAQENFTHPSGVGERCDTPANLLAKGCQLNFIENPVSQVEILKNKPLSVGRQKNSSDIVQIAPQSLILKLRPGGAQTLQVHVRQTEDYPVDLYYLMDLSASMDDDLNTIKELGSRLSKEMSKLTSNFRLGFGSFVEKPVSPFVKTTPEEIANPCSSIPYFCLPTFGFKHILPLTNDAERFNEIVKNQKISANIDTPEGGFDAIMQAAVCKEKIGWRNDSLHLLVFVSDADSHFGMDSKLAGIVIPNDGLCHLDSKNEYSMSTVLEYPTIGQLIDKLVQNNVLLIFAVTQEQVHLYENYAKLIPGATVGLLQKDSGNILQLIISAYEELRSEVELEVLGDTEGLNLSFTAICNNGTLFQHQKKCSHMKVGDTASFSVTVNIPHCERRSRHIIIKPVGLGDALELLVSPECNCDCQKEVEVNSSKCHHGNGSFQCGVCACHPGHMGPRCECGEDMLSTDSCKEAPDHPSCSGRGDCYCGQCICHLSPYGNIYGPYCQCDNFSCVRHKGLLCGGNGDCDCGECVCRSGWTGEYCNCTTSTDSCVSEDGVLCSGRGDCVCGKCVCTNPGASGPTCERCPTCGDPCNSKRSCIECHLSAAGQAREECVDKCKLAGATISEEEDFSKDGSVSCSLQGENECLITFLITTDNEGKTIIHSINEKDCPKPPNIP
